Experiments:
[1] = biological target: Prp24-8Asub;Lsm2-8 mostly wild type (Saccharomyces cerevisiae;Saccharomyces cerevisiae) (UniProt P38203+P57743+P40070+P40089+Q06406+P53905+P47093); test: EMSA; conditions: Lsm2-8 titrated onto U6 pre-bound with 20 nM Prp24-8Asub; FP: 50 mM KCl or as listed 100 mM KCl in both 2x buffers, HEPES (10 mM acid + 10 mM Na salt), 10% glycerol, 1 mM TCEP, tRNA, heparin, BSA, 0.3 nM FAM-RNA …
[2] = biological target: Prp24 (EMSA, wild type);Lsm2-8 mostly wild type (Saccharomyces cerevisiae;Saccharomyces cerevisiae) (UniProt P38203+P57743+P40070+P40089+Q06406+P53905+P47093); test: EMSA; conditions: Lsm2-8 titrated onto U6 pre-bound with 20 nM Prp24; FP: 50 mM KCl or as listed 100 mM KCl in both 2x buffers, HEPES (10 mM acid + 10 mM Na salt), 10% glycerol, 1 mM TCEP, tRNA, heparin, BSA, 0.3 nM FAM-RNA …
Lsm2-8 Lsm3-R21A = biological target: T1, Lsm2-8 Lsm3-R21A (Saccharomyces cerevisiae, UniProt P38203;P57743;P40070;P40089;Q06406;P53905;P47093 …, R21A); test: fluorescence polarization; FP: 50 mM KCl or as listed 100 mM KCl in both 2x buffers, HEPES (10 mM acid + 10 mM Na salt), 10% glycerol, 1 mM TCEP, tRNA, heparin, BSA, 0.3 nM FAM-RNA; EMSA: 100 mM KCl, 20% sucrose, 20 mM bis-tris/10 mM HCl pH ~6.5, 1 mM EDTA, 1 mM TCEP, 0.01% Triton X-100, tRNA, heparin, BSA, room temperature, gel at 4 C; conditions: protein: recombinant; tags: as P1; copies: 1;1;1;1;1;1;1; label: 5'-FAM; single strand
T1 sequence 1: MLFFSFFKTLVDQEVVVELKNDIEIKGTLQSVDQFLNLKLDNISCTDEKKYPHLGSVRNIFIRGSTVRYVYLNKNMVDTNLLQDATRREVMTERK
T1 sequence 2: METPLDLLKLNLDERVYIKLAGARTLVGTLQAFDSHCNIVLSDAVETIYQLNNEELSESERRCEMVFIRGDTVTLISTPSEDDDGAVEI
T1 sequence 3: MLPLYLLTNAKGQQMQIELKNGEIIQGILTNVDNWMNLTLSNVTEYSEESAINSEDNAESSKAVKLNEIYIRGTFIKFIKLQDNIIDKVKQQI
T1 sequence 4: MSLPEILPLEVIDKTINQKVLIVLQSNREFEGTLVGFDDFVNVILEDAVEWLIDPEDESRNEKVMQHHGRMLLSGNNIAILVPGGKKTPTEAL
T1 sequence 5: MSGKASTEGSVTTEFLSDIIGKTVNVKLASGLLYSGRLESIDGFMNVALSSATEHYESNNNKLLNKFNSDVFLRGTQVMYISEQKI
T1 sequence 6: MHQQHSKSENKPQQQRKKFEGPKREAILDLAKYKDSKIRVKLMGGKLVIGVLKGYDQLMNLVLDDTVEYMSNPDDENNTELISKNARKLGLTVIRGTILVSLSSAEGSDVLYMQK
T1 sequence 7: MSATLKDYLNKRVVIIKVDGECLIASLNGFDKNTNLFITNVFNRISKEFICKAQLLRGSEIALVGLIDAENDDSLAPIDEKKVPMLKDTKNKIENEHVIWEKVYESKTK

Lsm2-8 construct 2 (WT) = biological target: T2, Lsm2-8 construct 2 (WT) (Saccharomyces cerevisiae, UniProt P38203;P57743;P40070;P40089;Q06406;P53905;P47093 …); test: as above; conditions: protein: recombinant; tags: Lsm8 C-terminal His6 (non-cleavable); Lsm3 C-terminal StrepII (non-cleavable); MBP on Lsm6 (TEV-labile); copies: 1;1;1;1;1;1;1; label: 5'-FAM; single strand
T2 sequence 1: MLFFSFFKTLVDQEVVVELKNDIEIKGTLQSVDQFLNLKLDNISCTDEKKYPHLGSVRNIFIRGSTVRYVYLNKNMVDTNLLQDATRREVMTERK
T2 sequence 2: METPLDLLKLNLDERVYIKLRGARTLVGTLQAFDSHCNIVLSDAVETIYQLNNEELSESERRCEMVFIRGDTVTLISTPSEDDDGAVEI
T2 sequence 3: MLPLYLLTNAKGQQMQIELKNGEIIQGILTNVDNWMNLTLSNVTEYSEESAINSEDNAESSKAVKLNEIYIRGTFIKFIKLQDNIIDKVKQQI
T2 sequence 4: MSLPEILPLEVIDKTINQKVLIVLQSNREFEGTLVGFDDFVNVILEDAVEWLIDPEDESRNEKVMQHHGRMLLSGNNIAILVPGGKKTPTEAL
T2 sequence 5: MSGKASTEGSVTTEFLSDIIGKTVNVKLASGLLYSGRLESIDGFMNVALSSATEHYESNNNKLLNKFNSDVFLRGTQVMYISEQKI
T2 sequence 6: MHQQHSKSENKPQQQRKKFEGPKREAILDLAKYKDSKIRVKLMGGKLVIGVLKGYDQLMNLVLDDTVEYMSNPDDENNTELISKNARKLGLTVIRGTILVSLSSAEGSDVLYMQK
T2 sequence 7: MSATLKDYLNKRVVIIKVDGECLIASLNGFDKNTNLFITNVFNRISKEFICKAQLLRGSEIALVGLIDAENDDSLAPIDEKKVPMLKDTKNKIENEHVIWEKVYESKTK

Lsm2-8 Lsm8-delC = biological target: T3, Lsm2-8 Lsm8-delC (Saccharomyces cerevisiae, UniProt P38203;P57743;P40070;P40089;Q06406;P53905;P47093 …); test: as above; conditions: protein: recombinant; tags: as P1; copies: 1;1;1;1;1;1;1; label: 5'-FAM; single strand
T3 sequence 1: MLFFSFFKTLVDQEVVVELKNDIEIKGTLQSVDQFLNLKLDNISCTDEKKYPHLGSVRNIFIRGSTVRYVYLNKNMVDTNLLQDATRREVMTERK
T3 sequence 2: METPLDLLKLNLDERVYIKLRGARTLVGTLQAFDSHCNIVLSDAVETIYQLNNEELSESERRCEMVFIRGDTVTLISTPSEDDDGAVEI
T3 sequence 3: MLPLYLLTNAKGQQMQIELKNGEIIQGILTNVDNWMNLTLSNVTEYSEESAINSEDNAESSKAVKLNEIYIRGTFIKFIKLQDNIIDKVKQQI
T3 sequence 4: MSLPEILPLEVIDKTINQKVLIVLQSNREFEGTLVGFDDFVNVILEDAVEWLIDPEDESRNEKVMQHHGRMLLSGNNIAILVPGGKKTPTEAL
T3 sequence 5: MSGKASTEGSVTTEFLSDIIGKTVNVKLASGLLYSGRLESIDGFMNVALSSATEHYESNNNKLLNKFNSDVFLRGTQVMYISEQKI
T3 sequence 6: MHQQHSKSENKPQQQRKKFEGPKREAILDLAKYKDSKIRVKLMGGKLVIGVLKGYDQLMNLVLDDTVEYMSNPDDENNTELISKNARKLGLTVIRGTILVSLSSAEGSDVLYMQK
T3 sequence 7: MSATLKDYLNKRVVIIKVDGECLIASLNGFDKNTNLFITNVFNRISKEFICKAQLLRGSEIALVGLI

Lsm2-8 Lsm2-K20E = biological target: T4, Lsm2-8 Lsm2-K20E (Saccharomyces cerevisiae, UniProt P38203;P57743;P40070;P40089;Q06406;P53905;P47093 …, K20E); test: as above; conditions: protein: recombinant; tags: as P1; copies: 1;1;1;1;1;1;1; label: 5'-FAM; single strand
T4 sequence 1: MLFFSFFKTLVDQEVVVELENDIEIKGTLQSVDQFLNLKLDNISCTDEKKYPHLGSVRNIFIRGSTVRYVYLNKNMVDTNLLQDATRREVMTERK
T4 sequence 2: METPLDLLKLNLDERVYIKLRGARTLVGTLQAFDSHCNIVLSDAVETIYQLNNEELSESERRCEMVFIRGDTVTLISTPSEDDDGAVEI
T4 sequence 3: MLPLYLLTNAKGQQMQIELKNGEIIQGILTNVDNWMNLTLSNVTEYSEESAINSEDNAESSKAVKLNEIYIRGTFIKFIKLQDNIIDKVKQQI
T4 sequence 4: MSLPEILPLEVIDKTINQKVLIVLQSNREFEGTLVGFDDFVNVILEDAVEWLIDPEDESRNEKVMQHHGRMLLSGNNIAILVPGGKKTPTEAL
T4 sequence 5: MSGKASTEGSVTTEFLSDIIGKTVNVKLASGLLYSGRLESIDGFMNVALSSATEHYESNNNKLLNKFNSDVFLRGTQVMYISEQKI
T4 sequence 6: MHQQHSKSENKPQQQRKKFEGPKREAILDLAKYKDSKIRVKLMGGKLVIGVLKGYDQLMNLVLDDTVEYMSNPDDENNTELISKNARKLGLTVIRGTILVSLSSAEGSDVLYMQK
T4 sequence 7: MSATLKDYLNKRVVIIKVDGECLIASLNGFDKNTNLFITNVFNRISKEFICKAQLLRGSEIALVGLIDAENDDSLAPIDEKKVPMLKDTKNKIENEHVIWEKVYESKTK

Lsm2-8 Lsm2-K20A = biological target: T5, Lsm2-8 Lsm2-K20A (Saccharomyces cerevisiae, UniProt P38203;P57743;P40070;P40089;Q06406;P53905;P47093 …, K20A); test: as above; conditions: protein: recombinant; tags: as P1; copies: 1;1;1;1;1;1;1; label: 5'-FAM; single strand
T5 sequence 1: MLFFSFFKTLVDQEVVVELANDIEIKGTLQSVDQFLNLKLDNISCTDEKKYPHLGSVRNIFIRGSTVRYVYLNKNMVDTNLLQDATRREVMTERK
T5 sequence 2: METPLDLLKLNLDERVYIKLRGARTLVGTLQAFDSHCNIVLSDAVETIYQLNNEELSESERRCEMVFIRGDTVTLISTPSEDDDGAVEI
T5 sequence 3: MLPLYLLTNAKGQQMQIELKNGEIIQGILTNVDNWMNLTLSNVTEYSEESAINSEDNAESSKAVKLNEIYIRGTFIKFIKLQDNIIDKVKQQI
T5 sequence 4: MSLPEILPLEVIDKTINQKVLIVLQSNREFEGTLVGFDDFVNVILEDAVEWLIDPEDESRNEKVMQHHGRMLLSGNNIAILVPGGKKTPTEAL
T5 sequence 5: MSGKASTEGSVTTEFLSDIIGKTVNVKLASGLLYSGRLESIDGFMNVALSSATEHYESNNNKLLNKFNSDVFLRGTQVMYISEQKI
T5 sequence 6: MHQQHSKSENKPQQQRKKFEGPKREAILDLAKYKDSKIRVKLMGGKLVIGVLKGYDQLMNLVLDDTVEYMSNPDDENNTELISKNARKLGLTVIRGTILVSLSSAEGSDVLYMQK
T5 sequence 7: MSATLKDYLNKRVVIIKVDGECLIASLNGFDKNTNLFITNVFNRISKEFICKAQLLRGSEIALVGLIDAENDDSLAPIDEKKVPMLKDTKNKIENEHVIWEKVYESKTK

Lsm2-8 Lsm3-R21E = biological target: T6, Lsm2-8 Lsm3-R21E (Saccharomyces cerevisiae, UniProt P38203;P57743;P40070;P40089;Q06406;P53905;P47093 …, R21E); test: as above; conditions: protein: recombinant; tags: as P1; copies: 1;1;1;1;1;1;1; label: 5'-FAM; single strand
T6 sequence 1: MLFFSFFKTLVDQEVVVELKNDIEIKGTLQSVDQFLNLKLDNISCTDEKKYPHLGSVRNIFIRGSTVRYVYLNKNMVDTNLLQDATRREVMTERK
T6 sequence 2: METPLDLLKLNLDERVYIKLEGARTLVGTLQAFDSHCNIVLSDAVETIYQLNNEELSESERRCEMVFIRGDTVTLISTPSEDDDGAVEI
T6 sequence 3: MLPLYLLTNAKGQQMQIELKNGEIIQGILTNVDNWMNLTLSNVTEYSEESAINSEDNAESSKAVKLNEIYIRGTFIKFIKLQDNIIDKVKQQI
T6 sequence 4: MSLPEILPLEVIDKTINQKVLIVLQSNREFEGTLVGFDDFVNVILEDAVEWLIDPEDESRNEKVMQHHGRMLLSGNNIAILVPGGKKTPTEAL
T6 sequence 5: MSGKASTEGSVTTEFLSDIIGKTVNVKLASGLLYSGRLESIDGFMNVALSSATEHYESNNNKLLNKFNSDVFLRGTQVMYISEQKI
T6 sequence 6: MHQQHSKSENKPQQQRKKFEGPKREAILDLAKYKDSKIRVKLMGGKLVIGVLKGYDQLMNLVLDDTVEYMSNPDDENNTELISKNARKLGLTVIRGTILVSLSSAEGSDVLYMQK
T6 sequence 7: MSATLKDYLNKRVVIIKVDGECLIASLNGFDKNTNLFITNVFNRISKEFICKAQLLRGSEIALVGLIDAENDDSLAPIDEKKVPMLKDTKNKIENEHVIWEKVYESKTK

Chain of Prp24-8Asub;Lsm2-8 mostly wild type (Saccharomyces cerevisiae;Saccharomyces cerevisiae) (P40070 whole entry, looked up, one chain of several): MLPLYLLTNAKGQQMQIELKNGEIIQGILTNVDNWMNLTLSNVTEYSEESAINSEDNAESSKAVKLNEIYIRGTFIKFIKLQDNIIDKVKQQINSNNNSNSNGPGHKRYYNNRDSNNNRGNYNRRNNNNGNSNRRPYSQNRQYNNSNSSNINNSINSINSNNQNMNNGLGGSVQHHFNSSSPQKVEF
Chain of Prp24 (EMSA, wild type);Lsm2-8 mostly wild type (Saccharomyces cerevisiae;Saccharomyces cerevisiae) (P40070 whole entry, looked up, one chain of several): as above

## Cy3-U6 1-112
[1]
  Kd: 5.7 nM
[2]
  Kd: 2.8 nM

## UUUCGUUUUU (ssRNA, none (3' phosphate removed with CIP)) [U6 104-113 2',3'-cis diol]
Lsm2-8 Lsm3-R21A
  Kd: 40.8 ± 3.3 nM
Lsm2-8 construct 2 (WT)
  Kd: 37.4 ± 4.5 nM
Lsm2-8 Lsm8-delC
  Kd: 277 ± 32 nM
Lsm2-8 Lsm2-K20E
  Kd: 1870 ± 370 nM
Lsm2-8 Lsm2-K20A
  Kd: 522 ± 48 nM
Lsm2-8 Lsm3-R21E
  Kd: 195 ± 27 nM
